Laboratory results reported in the supplement of paper PMC9170038.

Test system: MS2 coat protein
Assay: apparent KD of MS2 coat protein; designed switch direction (-1 OFF switch, 1 ON switch): -1; higher = weaker reporter binding
In short: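 The apparent KD reported per design is the median over clusters of curve fits to normalised cluster fluorescence. The RNA switches were transcribed on Illumina chips by stalled E. coli RNA polymerase. SNAP-549-labelled MS2 coat protein was titrated from 0.7 or 1.5 nM, doubling up to 3 µM, in Tris-HCl pH 7.5 buffer containing KCl, MgCl2, BSA, DTT, tRNA and Tween-20, with no input, 200 uM small-molecule ligand, or an oligonucleotide input.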

[1] = Eterna round: R95, input ligand: FMN 200 uM
[2] = Eterna round: R95, input ligand: microRNA oligo, concentration not stated
[3] = Eterna round: R95, input ligand: none
[4] = input ligand: microRNA oligo, concentration not stated

UCAACGCAAGGAUAUACUUGCGGUGAUGUUCGAAUUCUUCUACUUGAGGAUCACCCAAGUAGAAGGUGCGGUGA [jl-ex2.4.64 ViennaUCT mod] (Eterna round: R97, puzzle: Exclusion 2)
apparent KD of MS2 coat protein (input ligand: FMN 200 uM): 14 nM | apparent KD of MS2 coat protein (input ligand: none): 13.1 nM

AACAACGUAGGAUAUGCAGCUACGGACUUGAGGAUCACCCAAGUGAUCAUAGCCCGUAUAGCAGAAGGGCGGAUCA [Arontebi] (Eterna round: R97, puzzle: Exclusion 5)
apparent KD of MS2 coat protein (input ligand: FMN 200 uM): 321 nM | apparent KD of MS2 coat protein (input ligand: none): 224 nM

AACUCCUCAGGAUAUCUGAAAAUGGACAUGAGGAUCACCCAUGUGAAAGUCACAUCCGGAGGAGAAGGGAGGAGAA [Diororlera] (Eterna round: R97, puzzle: Exclusion 5)
apparent KD of MS2 coat protein (input ligand: FMN 200 uM): 44.6 nM | apparent KD of MS2 coat protein (input ligand: none): 16 nM

AUGUUGCGAGGAUAUAUAAGGGUAUAUUAAUAAGAUAUGGAACAUGAGGAUCACCCAUGUAGAAGGUGCAUAAC [JR_Ex2_Sub041] (Eterna round: R97, puzzle: Exclusion 2)
apparent KD of MS2 coat protein (input ligand: FMN 200 uM): 45.6 nM | apparent KD of MS2 coat protein (input ligand: none): 33.6 nM

AGAGGGCGAGGAUAUGCUAAAAGUGGUGCAGUUGUUCGUCGACUUGAGGAUCACCCAAGUAGAAGGCGCACUUC [Sointeer] (Eterna round: R97, puzzle: Exclusion 2)
apparent KD of MS2 coat protein (input ligand: FMN 200 uM): 67.9 nM | apparent KD of MS2 coat protein (input ligand: none): 18.5 nM

AGGUGUAGAGGAUAUCUCUUCUCUCACAUGAGGAUCACCCAUGUCCUGGUCACCAAGGAGAGAGAAGGCUACACCA [Omei Ex5 D9] (Eterna round: R97, puzzle: Exclusion 5)
apparent KD of MS2 coat protein (input ligand: FMN 200 uM): 56.4 nM | apparent KD of MS2 coat protein (input ligand: none): 76.4 nM

UCACCGCAAGGAUAUACUUGCGGUGAUGCUCGAAAUCUUCUACUUGAGGAUCACCCAAGUAGAAGGUGCGGUGA [jl-ex2.4.67 ViennaUCT mod] (Eterna round: R97, puzzle: Exclusion 2)
apparent KD of MS2 coat protein (input ligand: FMN 200 uM): 13 nM | apparent KD of MS2 coat protein (input ligand: none): 12.1 nM

GCUUGUAGAGGAUAUACGAGGGCCCGAGCGGAUAACACCGCACAUGAGGAUCACCCAUGUAGAAGGCUACUACC [JL-ex2-4.17 ViennaUCT mod] (Eterna round: R97, puzzle: Exclusion 2)
apparent KD of MS2 coat protein (input ligand: FMN 200 uM): 495 nM | apparent KD of MS2 coat protein (input ligand: none): 92.3 nM

AGUACUUACACGAAAGUGUUAGUACAAUAAGCUUGUGAAACAUGAGGAUCACCCAUGUCCUCAUAAGCUCGUCUUAU [salish99_TOv2_r3_016] (puzzle: Sensor v3, turn-off variant 2)
apparent KD of MS2 coat protein [1]: 18.6 nM | apparent KD of MS2 coat protein [2]: 615 nM | apparent KD of MS2 coat protein [3]: 17.1 nM

CGCUACGAAGUCAGGAUAUCAGAACAAGAUAAAUAUGAGAAGGGACAUGAGGAUCACCCAUGUUCGGUGGUAGC [BmEX4 A.14] (Eterna round: R97, puzzle: Brourd's mod of Exclusion 4)
apparent KD of MS2 coat protein (input ligand: FMN 200 uM): 24.6 nM | apparent KD of MS2 coat protein (input ligand: none): 21.1 nM

UUUAAUUUUUUUUUUUUACAAGCUUUUUGCUCGUCUUAUACAUGAGGAUCACCCAUGUGGGUGGAAAAUAAAUUAUC [JMF 92] (puzzle: Sensor v3, turn-off variant 2)
apparent KD of MS2 coat protein [1]: 33.9 nM | apparent KD of MS2 coat protein [2]: 45 nM | apparent KD of MS2 coat protein [3]: 88.4 nM

AUAUUGUGAGGAUAUGAACUUAGUAUCGAAAGAUACAAAGUUCAGAAGGCACAUGAGGAUCACCCAUGUUUCUC [Long static hairpin v7] (Eterna round: R97, puzzle: Exclusion 4)
apparent KD of MS2 coat protein (input ligand: FMN 200 uM): 703 nM | apparent KD of MS2 coat protein (input ligand: none): 76.1 nM

GGCCAGAUAGGAUAUACUUGAGGAUCACCCAAGUAAAGGAGCAAGCUCCGAUCCUUUGGUAGAAGGAUCGGCCA [Diqulees] (Eterna round: R97, puzzle: Exclusion 3)
apparent KD of MS2 coat protein (input ligand: FMN 200 uM): 92.7 nM | apparent KD of MS2 coat protein (input ligand: none): 52.8 nM

ACAAGCUUAAUCAGUAAGAACAUGAGGAUCACCCAUGUAAAAGGGAAGACAAUUGGGUUAUUUAAAGCUCGUCUUAU [JR_STOV1_Sub015] (Eterna round: R97, puzzle: Sensor, turn-off variant 1)
apparent KD of MS2 coat protein (input ligand: FMN 200 uM): 62.7 nM | apparent KD of MS2 coat protein (input ligand: none): 111 nM

UACGAGUUAGGAUAUGCAAUGGGCUCGCUUUCCUUCGAUAAACUUGAGGAUCACCCAAGUAGAAGGAACUUGUA [Mod 36 - Jieux - Exclusion 2] (Eterna round: R97, puzzle: Exclusion 2)
apparent KD of MS2 coat protein (input ligand: FMN 200 uM): 19.9 nM | apparent KD of MS2 coat protein (input ligand: none): 16.2 nM

GGUGCGUGUGUGAGGAUAUGCUGGUCCUUGGCUCGGCAGAAGGCACAUGAGGAUCACCCAUGUGGUGUCGUGCC [salish99_Bmod_ex4_057] (puzzle: Brourd's mod of Exclusion 4)
apparent KD of MS2 coat protein [2]: 19.9 nM

GGGCUGCGACGCAGCCAAACAAAACAUGAGGAUCACCCAUGUCAGGAUAUACCGAUGCAGCAUCUGUAGAAGGGACAGAUCCAA [Onlaorre] (Eterna round: R96, puzzle: Exclusion NG 3)
apparent KD of MS2 coat protein (input ligand: FMN 200 uM): 145 nM | apparent KD of MS2 coat protein [4]: 63.5 nM | apparent KD of MS2 coat protein (input ligand: none): 73.3 nM

GACCCAACCGUUAGGAUAUAGUCGACCUACGGCGACUAGAAGGAACAUGAGGAUCACCCAUGUGUGCGCACAAC [Eternabot (Original) Solution 25] (Eterna round: R97, puzzle: Brourd's mod of Exclusion 4)
apparent KD of MS2 coat protein (input ligand: FMN 200 uM): 190 nM | apparent KD of MS2 coat protein (input ligand: none): 60.8 nM

GCUGGCUGAGGAUAUCUAUCCAUGAACAUGAGGAUCACCCAUGUAAACGUGGAGUGAGAUAGAGAAGGCGGGCAGA [EX5 A.13] (Eterna round: R97, puzzle: Exclusion 5)
apparent KD of MS2 coat protein (input ligand: FMN 200 uM): 13.6 nM | apparent KD of MS2 coat protein (input ligand: none): 11.2 nM

UUGGAGAUAGGAUAUACGAGGAGAGUAGAGGGAAGGUGAUGACAUGAGGAUCACCCAUGUAGAAGGAUCAGGAG [JR_Exclu2_Sub068] (puzzle: Exclusion 2)
apparent KD of MS2 coat protein [2]: 112 nM

CCGGAAGUACAGGAUAUCGUAUCGGAUACGAUACGAGAAGGGUAUACAUGAGGAUCACCCAUGUGUCCUACCGG [Fiskers Ex 6 - 55] (puzzle: Exclusion 6)
apparent KD of MS2 coat protein [2]: 19.6 nM

ACAUGAGGAUCACCCAUGUGCACGUAAUGGCUCAUGUAGAGUGAGGAUAUGUGUGACGAACGAGCACAGAAGGCACAAGACUGG [Deportation 13 - Jieux - Exclusion NG 3] (Eterna round: R96, puzzle: Exclusion NG 3)
apparent KD of MS2 coat protein (input ligand: FMN 200 uM): 116 nM | apparent KD of MS2 coat protein [4]: 67.3 nM | apparent KD of MS2 coat protein (input ligand: none): 97.4 nM

GAAAAGGUAGAGGAUAUUUCAGGUCAAAGCUGCAAAGAAGGCUGCACAUGAGGAUCACCCAUGUGGUCUUAAAA [Mod of Quesina 7 - Jieux - Exclusion 6] (Eterna round: R97, puzzle: Exclusion 6)
apparent KD of MS2 coat protein (input ligand: FMN 200 uM): 90.4 nM | apparent KD of MS2 coat protein (input ligand: none): 25.7 nM

AAGAAACAUGAGGAUCACCCAUGUGAGGAUAUGAAAAAGAAAAGAAAAUAAAGAAGAAUCAGAAGGCACAAAGG [Mat - Mod of Hog D3] (puzzle: Exclusion 1)
apparent KD of MS2 coat protein [1]: 37.7 nM | apparent KD of MS2 coat protein [2]: 34.4 nM | apparent KD of MS2 coat protein [3]: 46.1 nM

UUAAUUAAUUAUAUAAGAUCACAUGAGGAUCACCCAUGUAUAUAGGAUAUCAGCUCGUGUAGAGCUGAGAAGGAUAUACAAUAU [ExNG3/3-B3] (Eterna round: R96, puzzle: Exclusion NG 3)
apparent KD of MS2 coat protein (input ligand: FMN 200 uM): 241 nM | apparent KD of MS2 coat protein [4]: 210 nM | apparent KD of MS2 coat protein (input ligand: none): 175 nM

GUAACAUGCUGGUGAUCAUACAUGAGGAUCACCCAUGUAACAAGCUUUUUGCUCGUCUUAUAAGAUCACCAGCAUGU [Stov1/9-A3] (Eterna round: R97, puzzle: Sensor, turn-off variant 1)
apparent KD of MS2 coat protein (input ligand: FMN 200 uM): 12.2 nM | apparent KD of MS2 coat protein (input ligand: none): 13.6 nM

GCAGUAACAUGAGGAUCACCCAUGUGGAACUCGUGAAUAAGCGAGGAUAUCUCAAGAUAUCAAAGAGAGAAGGCGUACACUGCA [Qulege] (Eterna round: R96, puzzle: Exclusion NG 3)
apparent KD of MS2 coat protein (input ligand: FMN 200 uM): 490 nM | apparent KD of MS2 coat protein [4]: 96.1 nM | apparent KD of MS2 coat protein (input ligand: none): 142 nM

GUUAGACAUGAGGAUCACCCAUGUGAGGAUAUGAUGCGAAUAAUGAAUGAAGAAAGCAUCAGAAGGCACAUAUG [Mat - Mod of Hyphema D29] (puzzle: Exclusion 1)
apparent KD of MS2 coat protein [1]: 375 nM | apparent KD of MS2 coat protein [2]: 296 nM | apparent KD of MS2 coat protein [3]: 221 nM

CGUGACUGAGGAUAUCUAUAAUAUCACAUGAGGAUCACCCAUGUCCAGCGAAAGCUGGAAGGAGAAGGCAGUCACG [Fiskers Ex 5 - 34] (puzzle: Exclusion 5)
apparent KD of MS2 coat protein [1]: 39.3 nM | apparent KD of MS2 coat protein [2]: 21.4 nM | apparent KD of MS2 coat protein [3]: 25.1 nM

GAUAGAGAGCAGGAUAUCUUGGGUAAGUGUUGUAGAGAAGGGCUCACAUGAGGAUCACCCAUGUGGUCCAAGAU [JL Dibiri mod 07] (puzzle: Exclusion 6)
apparent KD of MS2 coat protein [1]: 35.2 nM | apparent KD of MS2 coat protein [2]: 16.9 nM | apparent KD of MS2 coat protein [3]: 17.2 nM

AUAUAGCGAGGAUAUACAUGAGGAUCACCCAUGUGGUAGUAGAUACGGUAGGGCUAGUGUAGAAGGUGCUAUGA [EX3 #12] (Eterna round: R97, puzzle: Exclusion 3)
apparent KD of MS2 coat protein (input ligand: FMN 200 uM): 450 nM | apparent KD of MS2 coat protein (input ligand: none): 231 nM

UUCUUUAUACGAGGAUAUCAUACAUGAGGAUCACCCAUGUGGCUGGGUCUGUUUUUAUAUAAUAUUGAGAAGGCGUUUUGCUAU [JR_ExcNG2_Sub072] (Eterna round: R96, puzzle: Exclusion NG 2)
apparent KD of MS2 coat protein (input ligand: FMN 200 uM): 223 nM | apparent KD of MS2 coat protein [4]: 70.5 nM | apparent KD of MS2 coat protein (input ligand: none): 80.9 nM

GAUUAUGCGAGCUUUAGGGACAUGAGGAUCACCCAUGUUCGUCUUAUUAAUCUGGGUACACUAACAUACCUAAAUCU [JMF 9] (puzzle: Sensor v3, turn-off variant 1)
apparent KD of MS2 coat protein [1]: 27.7 nM | apparent KD of MS2 coat protein [2]: 47.2 nM | apparent KD of MS2 coat protein [3]: 31.4 nM

UUCGGCGGAGGAUAUACAUAUUUUUGUUGAAUCGGCGGAAAACAUGAGGAUCACCCAUGUAGAAGGUUGUUGAA [-16.3, -13.4 kcal, A 30%] (Eterna round: R97, puzzle: Exclusion 2)
apparent KD of MS2 coat protein (input ligand: FMN 200 uM): 27.2 nM | apparent KD of MS2 coat protein (input ligand: none): 32.3 nM
